Measured values taken from US20240360474 (Scribe Therapeutics Inc., published 2024).

T1: CasX variant 119 (synthetic construct)
T1 chain: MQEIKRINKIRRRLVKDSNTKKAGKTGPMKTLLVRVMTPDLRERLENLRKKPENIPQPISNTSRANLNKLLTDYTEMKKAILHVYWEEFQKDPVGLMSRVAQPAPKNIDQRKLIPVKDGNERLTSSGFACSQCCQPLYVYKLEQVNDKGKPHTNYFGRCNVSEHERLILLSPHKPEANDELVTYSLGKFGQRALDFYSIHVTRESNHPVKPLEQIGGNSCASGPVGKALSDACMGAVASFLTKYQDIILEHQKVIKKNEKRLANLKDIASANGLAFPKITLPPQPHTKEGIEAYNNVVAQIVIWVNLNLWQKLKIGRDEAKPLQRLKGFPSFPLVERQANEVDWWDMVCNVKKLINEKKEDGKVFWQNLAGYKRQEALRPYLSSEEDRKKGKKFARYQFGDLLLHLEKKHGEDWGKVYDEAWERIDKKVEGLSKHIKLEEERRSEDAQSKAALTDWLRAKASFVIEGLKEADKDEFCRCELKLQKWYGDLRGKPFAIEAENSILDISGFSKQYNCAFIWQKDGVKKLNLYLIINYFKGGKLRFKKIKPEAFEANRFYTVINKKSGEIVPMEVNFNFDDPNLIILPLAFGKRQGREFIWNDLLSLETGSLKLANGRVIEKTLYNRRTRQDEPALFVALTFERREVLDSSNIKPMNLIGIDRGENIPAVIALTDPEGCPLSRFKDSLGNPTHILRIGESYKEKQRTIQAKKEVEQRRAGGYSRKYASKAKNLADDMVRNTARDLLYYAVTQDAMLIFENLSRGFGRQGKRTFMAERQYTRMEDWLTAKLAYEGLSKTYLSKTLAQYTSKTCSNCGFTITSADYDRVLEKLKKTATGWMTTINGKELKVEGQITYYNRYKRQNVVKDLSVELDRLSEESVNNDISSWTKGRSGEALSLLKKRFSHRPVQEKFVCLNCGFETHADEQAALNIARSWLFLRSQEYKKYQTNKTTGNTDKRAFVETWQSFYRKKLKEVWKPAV

T2: CasX variant 438 (synthetic construct)
T2 chain: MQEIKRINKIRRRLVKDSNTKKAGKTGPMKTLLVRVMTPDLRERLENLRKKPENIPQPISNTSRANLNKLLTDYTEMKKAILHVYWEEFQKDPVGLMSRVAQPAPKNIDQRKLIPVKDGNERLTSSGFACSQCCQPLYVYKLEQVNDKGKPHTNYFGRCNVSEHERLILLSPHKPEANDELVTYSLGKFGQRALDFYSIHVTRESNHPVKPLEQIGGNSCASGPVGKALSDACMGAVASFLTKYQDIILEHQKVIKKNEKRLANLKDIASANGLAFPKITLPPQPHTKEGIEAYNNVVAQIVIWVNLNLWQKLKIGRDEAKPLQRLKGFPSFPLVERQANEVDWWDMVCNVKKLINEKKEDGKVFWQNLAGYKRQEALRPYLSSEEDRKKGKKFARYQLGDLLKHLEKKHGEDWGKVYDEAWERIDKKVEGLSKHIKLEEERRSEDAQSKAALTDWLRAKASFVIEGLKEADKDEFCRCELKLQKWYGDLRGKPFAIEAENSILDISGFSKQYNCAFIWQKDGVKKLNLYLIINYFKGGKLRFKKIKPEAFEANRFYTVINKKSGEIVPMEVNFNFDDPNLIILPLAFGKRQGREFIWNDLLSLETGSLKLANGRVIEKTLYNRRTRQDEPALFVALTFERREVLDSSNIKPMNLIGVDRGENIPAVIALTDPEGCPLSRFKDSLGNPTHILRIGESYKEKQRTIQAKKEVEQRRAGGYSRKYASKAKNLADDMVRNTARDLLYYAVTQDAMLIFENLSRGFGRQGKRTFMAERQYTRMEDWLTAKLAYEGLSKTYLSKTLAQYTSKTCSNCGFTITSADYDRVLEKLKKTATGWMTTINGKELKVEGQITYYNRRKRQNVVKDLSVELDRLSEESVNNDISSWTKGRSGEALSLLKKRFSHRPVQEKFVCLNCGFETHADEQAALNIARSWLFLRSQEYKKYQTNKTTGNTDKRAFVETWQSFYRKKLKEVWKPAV

T3: CasX 2 (reference CasX) (Planctomycetes)
T3 chain: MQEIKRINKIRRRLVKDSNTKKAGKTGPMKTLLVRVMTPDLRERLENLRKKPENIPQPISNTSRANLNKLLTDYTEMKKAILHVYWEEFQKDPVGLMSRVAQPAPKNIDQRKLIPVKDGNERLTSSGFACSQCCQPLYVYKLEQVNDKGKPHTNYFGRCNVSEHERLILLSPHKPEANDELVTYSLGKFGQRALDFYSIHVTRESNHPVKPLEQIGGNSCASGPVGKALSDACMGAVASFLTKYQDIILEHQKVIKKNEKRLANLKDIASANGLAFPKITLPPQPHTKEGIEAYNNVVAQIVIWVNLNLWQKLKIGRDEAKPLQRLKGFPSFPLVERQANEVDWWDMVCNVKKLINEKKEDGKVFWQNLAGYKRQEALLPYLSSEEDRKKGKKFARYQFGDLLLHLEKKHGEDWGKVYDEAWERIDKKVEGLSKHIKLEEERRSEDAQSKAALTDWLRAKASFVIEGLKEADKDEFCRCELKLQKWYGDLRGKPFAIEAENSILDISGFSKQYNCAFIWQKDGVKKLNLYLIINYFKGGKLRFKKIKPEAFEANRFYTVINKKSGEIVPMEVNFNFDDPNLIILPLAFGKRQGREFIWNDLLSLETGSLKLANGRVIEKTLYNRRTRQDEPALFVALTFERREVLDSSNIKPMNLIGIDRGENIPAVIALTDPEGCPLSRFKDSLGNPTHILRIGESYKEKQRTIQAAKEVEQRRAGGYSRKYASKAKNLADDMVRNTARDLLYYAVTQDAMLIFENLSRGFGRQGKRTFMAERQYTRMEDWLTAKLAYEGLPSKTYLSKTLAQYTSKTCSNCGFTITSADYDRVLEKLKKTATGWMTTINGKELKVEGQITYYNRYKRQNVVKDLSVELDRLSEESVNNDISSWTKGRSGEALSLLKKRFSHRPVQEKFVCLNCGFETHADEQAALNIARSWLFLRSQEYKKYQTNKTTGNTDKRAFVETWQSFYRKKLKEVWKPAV

T4: CasX variant 491 (synthetic construct)
T4 chain: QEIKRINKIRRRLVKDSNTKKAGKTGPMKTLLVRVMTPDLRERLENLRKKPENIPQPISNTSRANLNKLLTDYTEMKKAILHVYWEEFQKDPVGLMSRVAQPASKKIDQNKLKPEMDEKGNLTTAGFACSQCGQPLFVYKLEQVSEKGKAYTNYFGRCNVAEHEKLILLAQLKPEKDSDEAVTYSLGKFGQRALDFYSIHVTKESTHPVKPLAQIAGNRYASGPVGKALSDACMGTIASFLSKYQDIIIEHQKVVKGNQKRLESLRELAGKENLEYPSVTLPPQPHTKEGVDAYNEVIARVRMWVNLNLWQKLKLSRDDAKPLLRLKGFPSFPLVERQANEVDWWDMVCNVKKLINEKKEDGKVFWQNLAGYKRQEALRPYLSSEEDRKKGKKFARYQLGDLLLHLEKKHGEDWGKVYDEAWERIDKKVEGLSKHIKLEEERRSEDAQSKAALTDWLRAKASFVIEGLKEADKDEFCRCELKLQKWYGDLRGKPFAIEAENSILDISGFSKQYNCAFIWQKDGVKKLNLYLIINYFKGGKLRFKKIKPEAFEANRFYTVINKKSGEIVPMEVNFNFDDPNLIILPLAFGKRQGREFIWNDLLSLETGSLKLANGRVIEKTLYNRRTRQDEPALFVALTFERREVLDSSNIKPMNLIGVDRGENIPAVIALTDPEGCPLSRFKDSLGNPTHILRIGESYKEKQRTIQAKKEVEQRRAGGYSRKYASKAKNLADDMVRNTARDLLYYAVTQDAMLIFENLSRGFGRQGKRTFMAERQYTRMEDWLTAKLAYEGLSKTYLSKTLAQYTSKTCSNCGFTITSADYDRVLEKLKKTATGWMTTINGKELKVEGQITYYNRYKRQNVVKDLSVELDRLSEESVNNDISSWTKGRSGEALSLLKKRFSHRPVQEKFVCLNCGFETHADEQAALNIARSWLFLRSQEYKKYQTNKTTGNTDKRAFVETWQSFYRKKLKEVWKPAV


How the values were obtained:
Assay in all cases: cleavage_in_vitro
CasX variant 119 = target: T1, CasX variant 119
CasX variant 438 = target: T2, CasX variant 438
CasX 2 (reference CasX) = target: T3, CasX 2 (reference CasX)
CasX variant 491 = target: T4, CasX variant 491

Row | Binder | activity (CasX variant 119) [min⁻¹] | activity (CasX variant 438) [min⁻¹] | activity (CasX 2 (reference CasX)) [min⁻¹] | activity (CasX variant 491) [min⁻¹]
1 | gRNA scaffold 174 + spacer 7.37 ; 7.37 CTC PAM target (ssRNA ; dsDNA) RNA: ACUGGCGCUUUUAUCUGAUUACUUUGAGAGCCAUCACCAGCGACUAUGUCGUAGUGGGUAAAGCUCCCUCUUCGGAGGGAGCAUCAAAGGGGCCGAGAUGUCUCGCUCC DNA 1: TGAAGCTGACAGCACTCGGGCCGAGATGTCTCGCTCCGTGGCCTTAGCTGTGCTCGCGCT DNA 2: AGCGCGAGCACAGCTAAGGCCACGGAGCGAGACATCTCGGCCCGAGTGCTGTCAGCTTCA | 0.303 | 0.212 | 0.00929 | 
2 | gRNA scaffold 174 + spacer 7.37 ; 7.37 ATC PAM target (ssRNA ; dsDNA) RNA: ACUGGCGCUUUUAUCUGAUUACUUUGAGAGCCAUCACCAGCGACUAUGUCGUAGUGGGUAAAGCUCCCUCUUCGGAGGGAGCAUCAAAGGGGCCGAGAUGUCUCGCUCC DNA 1: TGAAGCTGACAGCAATCGGGCCGAGATGTCTCGCTCCGTGGCCTTAGCTGTGCTCGCGCT DNA 2: AGCGCGAGCACAGCTAAGGCCACGGAGCGAGACATCTCGGCCCGATTGCTGTCAGCTTCA | 0.54 | 0.408 | 0.0187 | 
3 | gRNA scaffold 174 + spacer 7.37 ; 7.37 GTC PAM target (ssRNA ; dsDNA) RNA: ACUGGCGCUUUUAUCUGAUUACUUUGAGAGCCAUCACCAGCGACUAUGUCGUAGUGGGUAAAGCUCCCUCUUCGGAGGGAGCAUCAAAGGGGCCGAGAUGUCUCGCUCC DNA 1: TGAAGCTGACAGCAGTCGGGCCGAGATGTCTCGCTCCGTGGCCTTAGCTGTGCTCGCGCT DNA 2: AGCGCGAGCACAGCTAAGGCCACGGAGCGAGACATCTCGGCCCGACTGCTGTCAGCTTCA | 0.0864 |  | 0.00375 | 
4 | gRNA scaffold 174 + spacer 7.37 ; 7.37 TTT PAM target (ssRNA ; dsDNA) RNA: ACUGGCGCUUUUAUCUGAUUACUUUGAGAGCCAUCACCAGCGACUAUGUCGUAGUGGGUAAAGCUCCCUCUUCGGAGGGAGCAUCAAAGGGGCCGAGAUGUCUCGCUCC DNA 1: TGAAGCTGACAGCATTTGGGCCGAGATGTCTCGCTCCGTGGCCTTAGCTGTGCTCGCGCT DNA 2: AGCGCGAGCACAGCTAAGGCCACGGAGCGAGACATCTCGGCCCAAATGCTGTCAGCTTCA |  |  |  | 1.33
